Data published in patent US20240052047A1 (Pfizer, published 2024).

What was measured:
[1] = molecular target: human IL27 receptor (IL27RA/gp130 heterodimer) on human cells (human, UniProt Q6UWB1 33-636; P40189 23-918); test: cell-based or functional assay
[2] = molecular target: T1, Human IL27RA (human, UniProt Q6UWB1 33-516); test: SPR Biacore 8K+, 37 C; mAb-4894 captured by anti-Fab, antigen as analyte; 1:1 Langmuir fit
T1 construct: Soluble analyte in SPR and antigen in ELISA/screens; also called huIL27R
T1 sequence: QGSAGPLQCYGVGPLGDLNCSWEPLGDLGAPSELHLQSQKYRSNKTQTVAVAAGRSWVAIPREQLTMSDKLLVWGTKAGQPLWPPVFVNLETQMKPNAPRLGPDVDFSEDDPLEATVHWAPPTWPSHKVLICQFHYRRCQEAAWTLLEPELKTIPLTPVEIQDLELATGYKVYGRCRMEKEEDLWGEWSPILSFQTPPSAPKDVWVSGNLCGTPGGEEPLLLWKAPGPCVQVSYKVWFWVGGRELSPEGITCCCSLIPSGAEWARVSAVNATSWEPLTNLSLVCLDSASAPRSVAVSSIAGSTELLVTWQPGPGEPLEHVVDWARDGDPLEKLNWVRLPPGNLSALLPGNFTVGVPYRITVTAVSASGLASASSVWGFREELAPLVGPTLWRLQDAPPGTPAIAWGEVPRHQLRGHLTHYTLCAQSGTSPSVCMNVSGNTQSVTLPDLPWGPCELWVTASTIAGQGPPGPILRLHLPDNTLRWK
Method: The crossreactivity of mAb-4894 to human and cynomolgus monkey antigens, gp130 (human—SEQ ID NO: 45, cynomolgus—SEQ ID No: 46) and IL27RA (human—SEQ ID NO: 41, cynomolgus—SEQ ID No: 42), was measured by surface plasmon resonance by anti-FAB capture of mAb-4894 (containing arms of anti-IL27RA-4880 EE and anti-gp130-4875 RR) on a biacore chip. Human or cynomolgus monkey IL27RA or gp130 was flowed over the chip and on and off rates were determined, and the affinity constants calculated.
Flow cell 1 for each channel was used as a reference flow cell. After antibody capture, three-fold dilution series of cytokines with concentrations ranging from 405 nM to 15 nM for huGP130 and cyGP130 and 45 nM to 1.67 nM for huIL27R and cyIL27R or HBS-EP+ buffer were injected over the sensor surface for 60 seconds at 50 μl/minute. The dissociation was monitored for 600 seconds and the surface was regenerated with 2 injections of 10 mM Glycine pH 1.7 at 30 μl/minute. The data was double referenced (Myszka, D., J. Mol. Recognit 1999; 279-284). Binding affinities and rate constants were determined for human and cyno GP130 and IL27R by fitting the resulting sensorgram data to a 1:1 Langmuir model in BIAcore Insight Evaluation software version 3.0.12.15655 (Cytiva).

Sequence of human IL27 receptor (IL27RA/gp130 heterodimer) on human cells (P40189 23-918 limits assumed, one chain of several): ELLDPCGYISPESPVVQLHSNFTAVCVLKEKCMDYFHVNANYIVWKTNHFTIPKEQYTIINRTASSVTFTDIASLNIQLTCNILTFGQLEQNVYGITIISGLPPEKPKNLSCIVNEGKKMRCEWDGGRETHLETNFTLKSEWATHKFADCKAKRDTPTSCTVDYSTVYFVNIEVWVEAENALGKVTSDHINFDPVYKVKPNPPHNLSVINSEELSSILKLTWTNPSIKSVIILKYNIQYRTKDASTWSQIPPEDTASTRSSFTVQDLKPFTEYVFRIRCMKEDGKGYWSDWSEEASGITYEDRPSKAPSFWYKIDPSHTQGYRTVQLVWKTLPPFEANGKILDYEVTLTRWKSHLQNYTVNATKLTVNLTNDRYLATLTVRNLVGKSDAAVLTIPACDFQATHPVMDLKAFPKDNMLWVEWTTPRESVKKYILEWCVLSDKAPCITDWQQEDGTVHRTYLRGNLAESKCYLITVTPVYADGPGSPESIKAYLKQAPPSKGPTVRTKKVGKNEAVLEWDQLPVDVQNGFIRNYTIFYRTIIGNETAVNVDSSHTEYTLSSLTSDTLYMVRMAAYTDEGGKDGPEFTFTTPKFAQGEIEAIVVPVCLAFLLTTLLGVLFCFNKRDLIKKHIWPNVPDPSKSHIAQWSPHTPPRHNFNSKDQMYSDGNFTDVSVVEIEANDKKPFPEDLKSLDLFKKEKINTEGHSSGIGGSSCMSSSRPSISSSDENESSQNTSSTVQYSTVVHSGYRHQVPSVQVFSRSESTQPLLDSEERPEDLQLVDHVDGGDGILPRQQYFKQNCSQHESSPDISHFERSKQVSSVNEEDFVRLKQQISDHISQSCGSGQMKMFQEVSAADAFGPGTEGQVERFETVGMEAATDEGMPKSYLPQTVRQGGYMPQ

B1: mAb-4894 anti-IL27RA/gp130 bispecific antibody (bispecific antibody, human IgG1)
heavy 1: EVQLVESGGGLVQPGGSLRLSCAASGFTFEYFGLQWVRQAPGKGLEWIGYTSSGGNYEYYEETLKGRFTISRDNAKNSLYLQMNSLRAEDTAVYYCARTKTGDYWGQGTLVTVSSASTKGPSVFPLAPSSKSTSGGTAALGCLVKDYFPEPVTVSWNSGALTSGVHTFPAVLQSSGLYSLSSVVTVPSSSLGTQTYICNVNHKPSNTKVDKKVEPKSCEKTHTCPPCPAPEAAGAPSVFLFPPKPKDTLMISRTPEVTCVVVDVSHEDPEVKFNWYVDGVEVHNAKTKPREEQYNSTYRVVSVLTVLHQDWLNGKEYKCKVSNKALPAPIEKTISKAKGQPREPQVYTLPPSREEMTKNQVSLTCEVKGFYPSDIAVEWESNGQPENNYKTTPPVLDSDGSFFLYSKLTVDKSRWQQGNVFSCSVMHEALHNHYTQKSLSLSPGK
light 1: DIQMTQSPSSLSASVGDRVTITCRASQDIGNSLTWYQQKPGKAPKRVIFGATGLAAGVPSRFSGSGSGTDFTLTISSLQPEDFATYYCLQSKQYPYTFGQGTKLEIKRTVAAPSVFIFPPSDEQLKSGTASVVCLLNNFYPREAKVQWKVDNALQSGNSQESVTEQDSKDSTYSLSSTLTLSKADYEKHKVYACEVTHQGLSSPVTKSFNRGEC
heavy 2: QVQLVQSGAEVKKPGSSVKVSCKVSGGSISSYYWSWVRQAPGQGLEWIGRIYITGNTNYNPSLKDRVTMTVDTSTSTHYMELSSLRSEDTAVYYCAREGPKLGIFDYWGQGTLVTVSSASTKGPSVFPLAPSSKSTSGGTAALGCLVKDYFPEPVTVSWNSGALTSGVHTFPAVLQSSGLYSLSSVVTVPSSSLGTQTYICNVNHKPSNTKVDKKVEPKSCRKTHTCPPCPAPEAAGAPSVFLFPPKPKDTLMISRTPEVTCVVVDVSHEDPEVKFNWYVDGVEVHNAKTKPREEQYNSTYRVVSVLTVLHQDWLNGKEYKCKVSNKALPAPIEKTISKAKGQPREPQVYTLPPSREEMTKNQVSLTCLVKGFYPSDIAVEWESNGQPENNYKTTPPVLDSDGSFFLYSRLTVDKSRWQQGNVFSCSVMHEALHNHYTQKSLSLSPGK
light 2: DIQMTQSPSSLSASVGDRVTITCRASQSVSSSYLAWYQQKPGKAPKLLIYGTESRATGVPSRFSGSGSGTDFTLTISSLQPEDFATYYCQQYGGYPTFGGGTKVEIKRTVAAPSVFIFPPSDEQLKSGTASVVCLLNNFYPREAKVQWKVDNALQSGNSQESVTEQDSKDSTYSLSSTLTLSKADYEKHKVYACEVTHQGLSSPVTKSFNRGEC
notes: Human IgG1 EE/RR heterodimer with L234A, L235A, G237A (EU); also called GBT-IL27R-4894; GBT-IL-27R-4894
IDO1 mRNA expression in primary cultured human colonocytes, average EC50 [1]: 20 nM
pSTAT1 in CD3+ T cells from human whole blood, average EC50 [1]: 0.43 nM
pSTAT3 in CD3+ T cells from human whole blood, average EC50 [1]: 0.23 nM
Kd [2]: 0.11 nM
koff [2]: 0.00011 s⁻¹
kon [2]: 998000 M⁻¹ s⁻¹
